# Source: publication PMC10540051
# Biological target: purified extracellular moiety of SorCS1 (UniProt Q8WY21)
# Assay: SPR; BIAcore 3000, CM5 chip; extracellular moiety of SorCS1 immobilised at about 50 fmol/mm^2; mature BDNF (50–200 nM) injected at 5 μl/min in 10 mM Hepes, 150 mM NaCl, 1.5 mM CaCl2, 1 mM EGTA, 0.005% Tween-20, pH 7.4; Langmuir 1:1 model
# Sequence of UniProt Q8WY21 (Q8WY21 34-1099): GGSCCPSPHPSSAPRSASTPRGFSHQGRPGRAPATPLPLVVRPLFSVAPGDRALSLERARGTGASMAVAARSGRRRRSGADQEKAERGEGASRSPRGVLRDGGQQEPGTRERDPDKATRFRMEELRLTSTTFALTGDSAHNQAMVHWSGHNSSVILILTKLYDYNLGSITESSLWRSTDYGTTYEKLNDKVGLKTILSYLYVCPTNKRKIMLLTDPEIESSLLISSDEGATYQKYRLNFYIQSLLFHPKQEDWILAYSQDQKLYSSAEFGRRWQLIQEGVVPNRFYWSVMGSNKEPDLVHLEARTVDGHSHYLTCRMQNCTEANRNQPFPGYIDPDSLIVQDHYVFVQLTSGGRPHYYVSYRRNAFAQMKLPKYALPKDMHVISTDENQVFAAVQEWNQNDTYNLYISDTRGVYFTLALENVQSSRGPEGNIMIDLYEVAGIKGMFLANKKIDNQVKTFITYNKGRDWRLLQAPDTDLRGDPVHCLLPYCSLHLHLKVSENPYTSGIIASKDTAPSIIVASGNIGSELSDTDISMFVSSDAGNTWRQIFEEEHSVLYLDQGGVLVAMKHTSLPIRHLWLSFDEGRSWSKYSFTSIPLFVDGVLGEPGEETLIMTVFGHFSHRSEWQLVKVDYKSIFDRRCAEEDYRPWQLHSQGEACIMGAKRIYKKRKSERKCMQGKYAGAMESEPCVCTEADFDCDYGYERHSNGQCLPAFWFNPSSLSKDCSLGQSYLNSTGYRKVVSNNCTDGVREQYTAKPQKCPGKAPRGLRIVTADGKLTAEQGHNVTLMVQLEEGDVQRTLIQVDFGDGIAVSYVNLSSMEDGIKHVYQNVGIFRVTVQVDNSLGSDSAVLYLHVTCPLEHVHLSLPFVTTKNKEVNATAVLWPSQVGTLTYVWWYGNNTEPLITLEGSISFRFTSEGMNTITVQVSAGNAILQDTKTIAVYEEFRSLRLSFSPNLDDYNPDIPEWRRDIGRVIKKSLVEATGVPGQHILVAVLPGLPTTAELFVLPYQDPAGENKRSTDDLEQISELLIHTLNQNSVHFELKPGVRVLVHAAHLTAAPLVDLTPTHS
substance,measurement,value
mature BDNF (ligand),Kd,60 nM
